Assay results as given in US6528618B1, “Anti-inflammatory peptides derived from C-reactive protein” (Yeda Research and Development Co. Ltd., priority 1997, dated 2003).
Entries after “also recorded” stand apart in the source; their conditions may differ. Like-named read-outs stand apart in the source and are kept apart here. Where a SMILES comes first, the peptide text is derived from it.

Tests used:
hLE [1] = target: T1, hLE (Homo sapiens, UniProt P08246); assay: Resistance to proteolysis by hLE, degradation profile by RP-HPLC; assay type: in vitro ADME; conditions: PBS, 37° C., up to 12 hours
T1 construct: Neutrophils (1.4 billion) were isolated from whole blood obtained from a single healthy laboratory donor; from tissue; host or cells: neutrophils from whole blood of a single healthy donor
T1 sequence (P08246 30-247 limits assumed): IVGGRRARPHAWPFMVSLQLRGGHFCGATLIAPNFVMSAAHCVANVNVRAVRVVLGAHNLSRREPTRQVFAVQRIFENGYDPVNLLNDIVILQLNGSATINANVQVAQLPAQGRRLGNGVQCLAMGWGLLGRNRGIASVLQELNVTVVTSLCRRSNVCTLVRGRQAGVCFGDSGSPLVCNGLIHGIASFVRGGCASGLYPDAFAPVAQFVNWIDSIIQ
Method: (§1) (vii) Degradation profiles of peptides by RP-HPLC: Several active peptide inhibitors were dissolved in calcium- and magnesium-free phosphate-buffered saline (PBS), 125 μg /250 μL, mixed with […] of hLE or hCG in 250 μL PBS and incubated at 37° C. Periodically (up to 12 hrs), 100 μL samples were removed from the reaction vessel. The samples were diluted with 150 μL of 0.1% TFA, frozen with liquid nitrogen, and stored at −20° C. prior to HPLC analysis.
(§2) The stability of the peptide bonds in peptide 6 were evaluated by incubating the peptide with hLE and hCG and monitoring degradation profiles of the peptide by reverse-phase HPLC. Briefly, peptide 6 was dissolved in calcium- and magnesium-free phosphate-buffered saline (PBS), 50 μg/250 μL, mixed with 3 μg of hLE or hCG in 250 μL PBS and incubated at 37° C. Periodically, after 1,3,8, and 12 hrs incubation, 100 μL samples were removed from the reaction vessel. The samples were diluted with 150 μL of 0.1% TFA, frozen with liquid nitrogen, and stored at −20° C. prior to HPLC analysis.

[2] = target: T2, human leukocyte cathepsin G (hCG) (Homo sapiens, UniProt P08311); assay: In vitro inhibition of hCG (cleavage of Suc-AAPF-NA); assay type: biochemical
T2 construct: Neutrophils (1.4 billion) were isolated from whole blood obtained from a single healthy laboratory donor; from tissue; host or cells: neutrophils from whole blood of a single healthy donor
T2 sequence (P08311 21-243 limits assumed): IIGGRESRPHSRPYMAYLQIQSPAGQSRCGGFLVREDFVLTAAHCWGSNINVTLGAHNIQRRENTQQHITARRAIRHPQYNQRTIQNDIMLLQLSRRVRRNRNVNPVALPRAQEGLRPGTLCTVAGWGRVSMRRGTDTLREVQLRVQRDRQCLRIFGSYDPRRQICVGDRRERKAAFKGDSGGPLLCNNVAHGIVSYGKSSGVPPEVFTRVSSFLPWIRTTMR
Method: The enzymatic activity was assayed with MeOSuc-AAPV-NA for hLE determination and Suc-AAPF-NA for hCG determination (both in 100 mM Hepes buffer, pH 7.4, containing 0.05% of the […] detergent Brij-35). The activities of the individual enzymatic fractions were 100% free from cross-contamination. […] The fractions containing hLE and hCG were dialyzed each against 0.1% pyridinium acetate, pH 5.3, divided into 20 aliquots, lyophilized, and stored at −20 ° C. until use.
(§3) vi) Inhibition experiments with hCG: Similar conditions to hLE inhibition experiments were used except the substrate: 80 μL of 1.80 mM Suc-AAPF-NA. The enzyme was dissolved in 800 μL buffer, and the reaction was monitored every 6 min for 1 hour. The final volume was 240 μL containing: 5% DMSO, 1-100 μM peptide, 600 μM substrate, and 1.2 μg enzyme (about 40 picomol).
For hCG, V is determined by fitting a quadratic equation to the total kinetic data (60 min), using the least squares method and calculating V at t=0.
The hCG inhibitory capability of CRP-derived peptides was evaluated by inhibiting the enzymatic cleavage of Suc-AAPF-NA as described in Materials and Methods (section vi).

hCG = target: T3, hCG (Homo sapiens, UniProt P08311); assay: Resistance to proteolysis by hCG, degradation profile by RP-HPLC; assay type: in vitro ADME; conditions: PBS, 37° C., up to 12 hours
T3 construct: Neutrophils (1.4 billion) were isolated from whole blood obtained from a single healthy laboratory donor; from tissue; host or cells: neutrophils from whole blood of a single healthy donor
T3 sequence (P08311 21-243 limits assumed): T2 sequence (P08311 21-243 limits assumed)
Method: as §1, §2

[3] = target: T4, human leukocyte elastase (hLE) (Homo sapiens, UniProt P08246); assay: In vitro inhibition of hLE (cleavage of MeOSuc-AAPV-NA); assay type: biochemical
T4 construct: Neutrophils (1.4 billion) were isolated from whole blood obtained from a single healthy laboratory donor; from tissue; host or cells: neutrophils from whole blood of a single healthy donor
T4 sequence (P08246 30-247 limits assumed): T1 sequence (P08246 30-247 limits assumed)

human leukocyte elastase [4] = target: T5, human leukocyte elastase (human, UniProt P08246 30-267); assay: hLE enzyme inhibition kinetics, cleavage of MeOSuc-AAPV-NA
T5 construct: mature; Active enzyme purified from human neutrophils; also called hLE
T5 sequence (looked up): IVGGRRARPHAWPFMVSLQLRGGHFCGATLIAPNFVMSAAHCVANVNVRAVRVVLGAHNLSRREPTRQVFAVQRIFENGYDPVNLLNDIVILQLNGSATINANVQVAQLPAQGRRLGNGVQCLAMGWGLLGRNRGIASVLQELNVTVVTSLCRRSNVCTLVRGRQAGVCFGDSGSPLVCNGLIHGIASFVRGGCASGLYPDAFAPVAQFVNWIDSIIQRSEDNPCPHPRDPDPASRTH
Method: (§4) (v) Inhibition experiments with hLE: Peptides were dissolved in 100 mM Hepes buffer pH 7.4 containing 0.1% Brij-35 with 10%. DMSO to yield 300 µM solutions, which were used to make further dilutions with the same buffer, and 80 µL aliquots were added in duplicates to 96-well plates. The substrate, 600 µM MeOSuc-AAPV-NA in the same buffer with 5% DMSO, was added to each well in addition to the blank wells, and the plate was placed in the plate reader equilibrated to 37 C (Dynateck MR-6000). Lyophilized aliquots of hLE were dissolved in 1600 µL of 100 mM Hepes buffer without DMSO, and 80 µL of the enzyme solution was added to the peptides and substrate to initiate the reaction. The kinetics program read the plate at 405 nm every 2 min for 20 min (with a 3 sec shaking period between readings), and plotted the results as well as the average of each duplicate. The final volume was 240 µL containing: 5% DMSO, 1–100 µM of peptide, 200 µM substrate, and 0.75 µg (~25 picomol) enzyme.
(§5) The hLE inhibitory capability of CRP-derived peptides was evaluated by inhibiting the enzymatic cleavage of MeOSuc-AAPV-NA as described in Materials and Methods (section v).

human leukocyte elastase [5] = target: T5, human leukocyte elastase; assay: as above; remark: listed apart in the source
Method: as §4, §5

[6] = target: T6, human leukocyte cathepsin G (human, UniProt P08311 21-244); assay: hCG enzyme inhibition kinetics, cleavage of Suc-AAPF-NA
T6 construct: mature; Active enzyme purified from human neutrophils; also called hCG; human Cathepsin G
T6 sequence (looked up): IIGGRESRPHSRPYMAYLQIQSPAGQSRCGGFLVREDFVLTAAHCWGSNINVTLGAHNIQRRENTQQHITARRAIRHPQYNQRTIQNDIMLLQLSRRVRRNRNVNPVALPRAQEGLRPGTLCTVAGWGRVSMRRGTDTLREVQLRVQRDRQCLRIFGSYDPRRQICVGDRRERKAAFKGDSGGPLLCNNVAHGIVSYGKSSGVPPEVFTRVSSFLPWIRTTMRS
Method: as §4
as §3, with “µL” for “μL”, “1–100 µM” for “1-100 μM”, “µM” for “μM”, “µg” for “μg”

[7] = target: T6, human leukocyte cathepsin G; assay: as above; remark: listed apart in the source
Method: as §4
as §3, with “µL” for “μL”, “1–100 µM” for “1-100 μM”, “µM” for “μM”, “µg” for “μg”

hLE [8] = target: T7, hLE (Homo sapiens, UniProt P08246); conditions: CRP as a whole protein; cited from earlier work
T7 sequence (P08246 30-267): T5 sequence (looked up)

[9] = test system: specific receptors on human neutrophils; conditions: in vitro; read-out: Kd, binding to receptors on human neutrophils; cited from earlier work
[10] = target: specific receptors on monocytes; conditions: in vitro; read-out: Kd, binding to receptors on monocytes; cited from earlier work
[11] = peptide concentrations above 50 μM

CC[C@H](C)[C@H](NC(=O)[C@H](CC(=O)O)NC(=O)[C@H](CCCCN)NC(=O)[C@H](CO)NC(=O)[C@H](Cc1c[nH]c2ccccc12)NC(=O)[C@H](Cc1ccccc1)NC(=O)[C@@H](NC(=O)[C@H](CC(C)C)NC(=O)[C@@H](NC(=O)[C@@H](N)CCC(=O)O)[C@@H](C)CC)[C@@H](C)CC)C(=O)NCC(=O)N[C@@H](Cc1ccc(O)cc1)C(=O)N[C@@H](CO)C(=O)N[C@@H](Cc1ccccc1)C(=O)N[C@H](C(=O)O)[C@@H](C)O [Peptide 6, Glu-Ile-Leu-Ile-Phe-Trp-Ser-Lys-Asp-Ile-Gly-Tyr-Ser-Phe-Thr] (H-EILIFWSKDIGYSFT-OH; N-terminus and C-terminus assumed)
cleavage products after incubation with hLE (hLE [1]): no cleavage products were observed | hCG inhibitory activity (in words) [2]: submicromolar concentrations | Ki ([2]; hCG Ki [μM], Table 1, substrate Suc-AAPF-NA 600 μM, pH 7.4): 0.25 ± 0.05 µM | hCG inhibition at concentrations above 50 μM [2, 11]: total inhibition | cleavage products after incubation with hCG (hCG): no cleavage products were observed | hLE inhibitory activity (in words) [3]: submicromolar concentrations | Ki ([3]; hLE Ki [μM], Table 1, substrate MeOSuc-AAPV-NA 200 μM, pH 7.4, 37 C): 0.18 ± 0.03 µM | hLE inhibition at concentrations above 50 μM [3, 11]: Total inhibition

CC[C@H](C)[C@H](NC(=O)[C@H](CC(=O)O)NC(=O)[C@H](CCCCN)NC(=O)[C@H](CO)NC(=O)[C@H](Cc1c[nH]c2ccccc12)NC(=O)[C@H](Cc1ccccc1)NC(=O)[C@@H](NC(=O)[C@H](CC(C)C)NC(=O)[C@@H](NC(=O)[C@H](CCC(=O)O)NC(=O)[C@H](CC(N)=O)NC(=O)[C@H](CC(=O)O)NC(=O)[C@H](CCC(N)=O)NC(=O)[C@H](CCCNC(=N)N)NC(=O)[C@@H](N)CCCCN)[C@@H](C)CC)[C@@H](C)CC)C(=O)O [Peptide 5, Lys-Arg-Gln-Asp-Asn-Glu-Ile-Leu-Ile-Phe-Trp-Ser-Lys-Asp-Ile] (H-KRQDNEILIFWSKDI-OH; N-terminus and C-terminus assumed)
Ki ([2]; hCG inhibitory activity range): 150 to 200 µM | hLE inhibitory activity (in words) [3]: two orders of magnitude less potent than peptide 6; also recorded: lowered the inhibitory capability by more than one order of magnitude | Ki ([3]; hLE inhibitory activity range): 50 to 100 µM

TFSYGIDKSWFILIE [peptide 24 (reverse sequence of peptide 6)]
Ki (human leukocyte elastase [4]): 10 µM | fold less active against peptide 6 (human leukocyte elastase [5]): 30 fold

ILFEVPEVTVAPVHI (Synthetic 15-mer) [peptide 10 (CRP82-96)]
Ki [6]: 150 µM | Ki (human leukocyte elastase [5]): 55 µM

ILIFWSKDIGYSFT (Synthetic) [peptide 11 (CRP63-76)]
Ki (human leukocyte elastase [4]): 4.5 µM | Ki [7]: 15 µM | fold decrease in hLE inhibition against peptide 6 (human leukocyte elastase [5]): ~20 fold

KRQDNEILIFWSKDI (Synthetic 15-mer) [peptide 5 (CRP57-71)]
Ki [6]: 180 µM | Ki (human leukocyte elastase [5]): 85 µM

B1: peptide 18 (peptide)
peptide: DILIFWSKDIGYSFT
notes: Analog of peptide 6 (CRP62-76) with Glu62 replaced by Asp; also called pep18
Ki (human leukocyte elastase [4]): 2.2 µM | Ki [7]: 2.6 µM | fold lower inhibitory activity against peptide 6 (human leukocyte elastase [5]): 10 fold

B2: peptide 23 (peptide)
peptide: EILIFWSKEIGYSFT
notes: Analog of peptide 6 (CRP62-76) with Asp70 replaced by Glu; also called pep23
Ki (human leukocyte elastase [4]): 0.55 µM

B3: peptide 19 (peptide)
peptide: EILIFWPKDIGYSFT
notes: Analog of peptide 6 (CRP62-76) with Ser68 replaced by Pro
Ki [7]: 30 µM

EILIFWSKDI (Synthetic; also called pep14) [peptide 14 (CRP62-71)]
Ki (human leukocyte elastase [4]): 6.7 µM | Ki [7]: 6 µM

B4: peptide 26 (peptide)
peptide: EILIFWSVDI
notes: 10-mer analog of peptide 14 (CRP62-71) with Lys69 replaced by Val; also called pep26
Ki (human leukocyte elastase [4]): 2 µM

EILIFWSKDIGY (Synthetic; also called pep13) [peptide 13 (CRP62-73)]
Ki (human leukocyte elastase [4]): 1.1 µM | Ki [7]: 4 µM

ATKRQDNEILIFWSKDIGYSFTVGGSEIL (Synthetic 29-mer) [peptide 17 (CRP55-83)]
Ki (human leukocyte elastase [4]): 7.3 µM

B5: CRP: plasma protein classified as a major acute phase reactant; five identical sub-units of 206 amino acids (pentraxin) (protein, listed as Homo sapiens)
chain: ETDMSRKAFVFPKESDTSYVSLKAPLTKPLKAFTVCLHFYTELSSTRGYSIFSYATKRQDNEILIFWSKDIGYSFTVGGSEILFEVPEVTVAPVHICTSWESASGIVEFWVDGKPRVRKSLKKGYTVGAEASIILGQEQDSFGGNFEGSQSLVGDIGNVNMWDFVLSPDEINTIYLGGPFSPNVLNWRALKYEVQGEVFTKPQLWP
modifications: pentamer
inhibitory effect of whole CRP on hLE (hLE [8]): no inhibitory effect | Kd [9]: ~0.05 µM | Kd [10]: ~0.1 µM
